Experimental data as given in paper PMC8635433 (Science Advances, 2021).

Target: coxsackie and adenovirus receptor (CAR), immobilised for SPR (UniProt P78310 20-365)
Assay: SPR; BIAcore T200; about 2000 RU of CAR, DSG2 and CD46 amine-coupled to a CM5 chip; fiber knob proteins flowed over, 1:2 serial dilutions; 25°C, PBS with 0.001% P20, 30 μl/min; 1:1 interaction model
Conditions: both partners purified

coxsackie and adenovirus receptor (CAR), immobilised for SPR, sequence (P78310 20-365): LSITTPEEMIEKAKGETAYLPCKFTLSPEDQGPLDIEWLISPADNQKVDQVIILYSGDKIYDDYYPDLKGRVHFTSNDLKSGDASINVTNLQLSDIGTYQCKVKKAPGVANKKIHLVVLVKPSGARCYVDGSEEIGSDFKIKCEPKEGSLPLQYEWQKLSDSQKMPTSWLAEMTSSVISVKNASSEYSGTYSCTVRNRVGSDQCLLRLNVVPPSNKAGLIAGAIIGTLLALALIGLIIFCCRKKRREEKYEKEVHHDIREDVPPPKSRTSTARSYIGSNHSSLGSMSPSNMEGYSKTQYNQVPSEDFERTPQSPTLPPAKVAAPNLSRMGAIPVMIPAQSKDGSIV

B1: HAdV-C5 fiber knob protein (domain or fragment)
chain: TGAITVGNKNNDKLTLWTTPAPSPNCRLNAEKDAKLTLVLTKCGSQILATVSVLAVKGSLAPISGTVQSAHLIIRFDENGVLLNNSFLDPEYWNFRNGDLTEGTAYTNAVGFMPNLSAYPKSHGKTAKSNIVSQVYLNGDKTKPVTLTITLNGTQETGDTTPSAYSMSFSWDWSGHNYINEIFATSSYTFSYIAQE
notes: source: recombinant soluble knob protein, purified
In the case of B1, the Kd is reported as 0.06 nM.
